In US6855515B1, “Autoantigenic fragments, methods and assays” (Merck & Co., Inc., priority 1998, dated 2005):

Molecular target: T1, granzyme B (Homo sapiens, UniProt P10144)
T1 construct: Some of these preparations were used for the further purification of granzyme B (Tschopp, 1994); endogenous in cells; host or cells: YT cells (human NK cell line), cytoplasmic granules
Experiment: In vitro cleavage of substrates by purified granzyme B, kcat/Km from densitometry
Type: biochemical
Conditions: ratio of kcat/Km
Method: cDNAs for caspase-3, caspase-7, NuMA and PARP were used to drive the synthesis of [^35S]methionine-labeled proteins by coupled transcription/translation in rabbit reticulocyte lysates. For all purified substrates, cleavage reactions were performed in buffer consisting of 50 mM Hepes pH 7.4, 10% sucrose and 5 mM DTT in the presence of the granzyme B concentrations indicated in FIG. 1. After incubation at 37° C. for 15 min, reactions were terminated and samples were electrophoresed on 10% (DNA-PKcs, NuMA), 12% (PARP) or 15% (caspases 3 and 7) SDS-polyacrylamide gels. Radiolabeled proteins and their fragments were visualized by fluorography. Intact and cleaved DNA-PKcs were visualized by immunoblotting with monoclonal antibody 18-2 (Casciola-Rosen et al., 1995).
Catalytic constant (kcat/km) values were calculated essentially as described (Casciola-Rosen et al., 1996). Briefly, subsaturating substrate concentrations were used in each in vitro reaction, and product appearance was assumed to be a first order process. […] Several appropriate densitometry systems are available, e.g. PDI Discovery System, with Quantity One Software, Protein Databases, Inc., (Huntington Station, N.Y.). kcat/Km values were calculated by fitting the dose-response data to the first order rate equation: percent substrate cleavage=100*((1^-e-((kcat*[E]/Km)*time)). […]

T1 sequence (P10144 21-247): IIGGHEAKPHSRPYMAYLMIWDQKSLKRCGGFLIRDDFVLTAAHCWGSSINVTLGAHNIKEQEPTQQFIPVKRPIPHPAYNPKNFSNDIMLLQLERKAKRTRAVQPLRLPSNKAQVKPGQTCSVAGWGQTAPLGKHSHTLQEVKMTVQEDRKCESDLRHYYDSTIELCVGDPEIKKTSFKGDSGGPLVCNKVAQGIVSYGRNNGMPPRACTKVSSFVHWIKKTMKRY

B1: Caspase-7: precursor of caspase-7 used as substrate for granzyme B (protein, UniProt P55210 2-303, looked up)
pro-form: ADDQGCIEEQGVEDSANEDSVDAKPDRSSFVPSLFSKKKKNVTMRSIKTTRDRVPTYQYNMNFEKLGKCIIINNKNFDKVTGMGVRNGTDKDAEALFKCFRSLGFDVIVYNDCSCAKMQDLLKKASEEDHTNAACFACILLSHGEENVIYGKDGVTPIKDLTAHFRGDRCKTLLEKPKLFFIQACRGTELDDGIQADSGPINDTDANPRYKIPVEADFLFAYSTVPGYYSWRSPGRGSWFVQALCSILEEHGKDLEIMQILTRVNDRVARHFESQSDDPHFHEKKQIPCVVSMLTKELYFSQ
modifications: pro-form
notes: precursor of caspase-7 used as substrate for granzyme B
  efficiency of granzyme B cleavage relative to caspase-3 precursor: approximately 6 fold
